Data reported in patent US20160090426A1 (WUHAN YZY BIOPHARMA, published 2016).

How the values were obtained:
[1] = biological target: T1, EpCAM on EpCAM-positive HCT116 cells (UniProt P16422 24-314, limits assumed); assay: cell-based or functional assay
T1 sequence (looked up): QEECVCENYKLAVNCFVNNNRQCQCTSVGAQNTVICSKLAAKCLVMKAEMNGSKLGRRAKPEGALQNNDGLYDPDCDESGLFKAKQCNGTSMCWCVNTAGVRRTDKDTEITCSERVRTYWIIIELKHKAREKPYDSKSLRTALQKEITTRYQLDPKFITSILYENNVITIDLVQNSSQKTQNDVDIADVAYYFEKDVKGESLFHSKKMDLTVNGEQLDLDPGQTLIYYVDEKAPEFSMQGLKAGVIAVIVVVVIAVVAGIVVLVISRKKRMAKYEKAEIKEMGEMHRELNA

[2] = biological target: CD3 on CD3-positive Jurkat cells; assay: cell-based or functional assay
[3] = biological target: T2, CD3 on CD3-positive Jurkat cells; assay: flow cytometry on Jurkat cells, KD fitted from mean fluorescence intensity
T2 construct: whole, on cells
Method: (§1) Enough HCT116 cells are cultured, digested with 0.25% trypsin and then collected by centrifugation. In the meantime, the bispecific antibody was diluted according to the concentration beginning from 10 ug/ml and ten-fold gradient dilution to obtain twelve concentration gradients for later use.
Enough Jurkat suspension cells were cultured and collected by centrifugation. The same as the steps described in the example forementioned, in the following experimental process, the cells resuspended with 100 ul PBS were detected on an instrument, and the binding affinity KD value of the bispecific antibody and the Jurkat cells was analyzed and calculated according to the mean fluorescence intensity by using software GraphPadPrism 5.0.

[4] = biological target: T1, EpCAM on EpCAM-positive HCT116 cells; assay: flow cytometry on HCT116 cells, PE anti-human IgG Fc, KD fitted from mean fluorescence intensity
Method: as §1

B1: EpCAM×CD3 bispecific antibody M701 (bispecific antibody, human IgG1, kappa)
heavy: EVQLLEQSGAELVRPGTSVKISCKASGYAFTNYWLGWVKQRPGHGLEWIGDIFPGSGNIHYNEKFKGKATLTADKSSSTAYMQLSSLTFEDSAVYFCARLRNWDEPMDYWGQGTTVTVSSASTKGPSVFPLAPSSKSTSGGTAALGCLVKDYFPEPVTVSWNSGALTSGVHTFPAVLQSSGLYSLSSVVTVPSSSLGTQTYICNVNHKPSNTKVDKKVEPKSCDKTHTCPPCPAPELLGGPSVFLFPPKPKDTLMISRTPEVTCVVVDVSHEDPEVKFNWYVDGVEVHNAKTKPREEQYNSTYRVVSVLTVLHQDWLNGKEYKCKVSNKALPAPIEKTISKAKGQPREPQVYTLPPSRDELTKNQVSLWCLVKGFYPSDIAVEWESNGQPENNYDTTPPVLDSDGSFFLYSDLTVDKSRWQQGNVFSCSVMHEALHNHYTQKSLSLSPGK
light: ELVMTQSPSSLTVTAGEKVTMSCKSSQSLLNSGNQKNYLTWYQQKPGQPPKLLIYWASTRESGVPDRFTGSGSGTDFTLTISSVQAEDLAVYYCQNDYSYPLTFGAGTKLEIKRTVAAPSVFIFPPSDEQLKSGTASVVCLLNNFYPREAKVQWKVDNALQSGNSQESVTEQDSKDSTYSLSSTLTLSKADYEKHKVYACEVTHQGLSSPVTKSFNRGEC
chain: not shown
notes: Heterodimer of one anti-EpCAM heavy/light chain pair (IgG form) and one anti-CD3 ScFv-Fc; also called EpCAM×CD3 MSBODY; EpCAM×CD3 MSBODY bispecific antibody
ratio of bifluorescence via flow cytometer detection (double positive CFSE-HCT116 / PKH-26-Jurkat cells) [1]: 27.5% | ratio of bifluorescence via flow cytometer detection (double positive CFSE-HCT116 / PKH-26-Jurkat cells) [2]: 27.5% | Kd [3]: 14.3 nM | Kd [4]: 9.6 nM
